B1: Guanyl-specific ribonuclease T1, P00651 (parent)
chain: MMYSKLLTLTTLLLPTALALPSLVERACDYTCGSNCYSSSDVSTAQAAGYQLHEDGETVGSNSYPHKYNNYEGFDFSVSSPYYEWPILSSGDVYSGGSPGADRVVFNENNQLAGVITHTGASGNNFVECT
B2: Aspartate aminotransferase, P00509 (parent)
chain: MFENITAAPADPILGLADLFRADERPGKINLGIGVYKDETGKTPVLTSVKKAEQYLLENETTKNYLGIDGIPEFGRCTQELLFGKGSALINDKRARTAQTPGGTGALRVAADFLAKNTSVKRVWVSNPSWPNHKSVFNSAGLEVREYAYYDAENHTLDFDALINSLNEAQAGDVVLFHGCCHNPTGIDPTLEQWQTLAQLSVEKGWLPLFDFAYQGFARGLEEDAEGLRAFAAMHKELIVASSYSKNFGLYNERVGACTLVAADSETVDRAFSQMKAAIRANYSNPPAHGASVVATILSNDALRAIWEQELTDMRQRIQRMRQLFVNTLQEKGANRDFSFIIKQNGMFSFSGLTKEQVLRLREEFGVYAVASGRVNVAGMTPDNMAPLCEAIVAVL
B3: Superoxide dismutase [Cu-Zn], P00445 (parent)
chain: MVQAVAVLKGDAGVSGVVKFEQASESEPTTVSYEIAGNSPNAERGFHIHEFGDATNGCVSAGPHFNPFKKTHGAPTDEVRHVGDMGNVKTDENGVAKGSFKDSLIKLIGPTSVVGRSVVIHAGQDDLGKGDTEESLKTGNAGPRPACGVIGLTN
B4: SNARE-associated protein Snapin, O95295 (parent)
chain: MAGAGSAAVSGAGTPVAGPTGRDLFAEGLLEFLRPAVQQLDSHVHAVRESQVELREQIDNLATELCRINEDQKVALDLDPYVKKLLNARRRVVLVNNILQNAQERLRRLNHSVAKETARRRAMLDSGIYPPGSPGK
B5: N-(5'-phosphoribosyl)anthranilate isomerase, P00912 (parent)
chain: MSVINFTGSSGPLVKVCGLQSTEAAECALDSDADLLGIICVPNRKRTIDPVIARKISSLVKAYKNSSGTPKYLVGVFRNQPKEDVLALVNDYGIDIVQLHGDESWQEYQEFLGLPVIKRLVFPKDCNILLSAASQKPHSFIPLFDSEAGGTGELLDWNSISDWVGRQESPESLHFMLAGGLTPENVGDALRLNGVIGVDVSGGVETNGVKDSNKIANFVKNAKK

Nine variants from FireProtDB can be followed below.

In one data set the parent is B1. Conditions: Aspergillus oryzae (strain ATCC 42149 / RIB 40); pH 7.4; 25 °C; Urea; Fluorescence; Sodium acetate 50 mM; reversible: yes; structure 1RN1; whole UniProt chain shown.
As to MMYSKLLTLTTLLLPTALALPSLVERACDYTCGSNCYSSSDVSTAQGAAYQLHEDGETVGSNSYPHKYNNYEGFDFSVSSPYYEWPILSSGDVYSGGSPGADRVVFNENNQLAGVITHTGASGNNFVECT [A47G G49A], the denaturant m value was found to be 1.37 kcal/mol/M, the “denaturant midpoint (higher = more stable)” value was 4.7 M and the unfolding free energy worked out at 6 kcal/mol.
In the case of MMYSKLLTLTTLLLPTALALPSLVERACDYTCGSNCYSSSDVSTAQGAGYQLHEDGETVGSNSYPHKYNNYEGFDFSVSSPYYEWPILSSGDVYSGGSPGADRVVFNENNQLAGVITHTGASGNNFVECT [A47G], the denaturant m value worked out at 1.3 kcal/mol/M, the “denaturant midpoint (higher = more stable)” value is 5.5 M and the unfolding free energy was determined as 7.1 kcal/mol.

The variants in another data set derive from B2. Conditions: Escherichia coli (strain K12); pH 7.5; 25 °C; Urea; enzyme activity; potassium phosphate 20 mM; structure 1AMQ; whole UniProt chain shown.
Take MFENITAAPADPILGLADLFRADERPGKINLGIGVYKDETGKTPVLTSVKKAEQYLLENETTKNYLGIDGIPEFGRCTQELLFGKGSALINDKRARTAQTPGGTGALRVAADFLAKNTSVKRVWVSNPSWPNHKSVFNSAGLEVREYAYYDAENHTLDFDALINSLNEAQAGDVVLFHGWCHNPTGIDPTLEQWQTLAQLSVEKGWLPLFDFAYQGFARGLEEDAEGLRAFAAMHKELIVASSYSKNFGLYNERVGACTLVAADSETVDRAFSQMKAAIRANYSNPPAHGASVVATILSNDALRAIWEQELTDMRQRIQRMRQLFVNTLQEKGANRDFSFIIKQNGMFSFSGLTKEQVLRLREEFGVYAVASGRVNVAGMTPDNMAPLCEAIVAVL [C180W]: the unfolding free energy came out at 6.1 kcal/mol.
On the same count and under the same terms, to MFENITAAPADPILGLADLFRADERPGKINLGIGVYKDETGKTPVLTSVKKAEQYLLENETTKNYLGIDGIPEFGRCTQELLFGKGSALINDKRARTAQTPGGTGALRVAADFLAKNTSVKRVWVSNPSWPNHKSVFNSAGLEVREYAYYDAENHTLDFDALINSLNEAQAGDVVLFHGFCHNPTGIDPTLEQWQTLAQLSVEKGWLPLFDFAYQGFARGLEEDAEGLRAFAAMHKELIVASSYSKNFGLYNERVGACTLVAADSETVDRAFSQMKAAIRANYSNPPAHGASVVATILSNDALRAIWEQELTDMRQRIQRMRQLFVNTLQEKGANRDFSFIIKQNGMFSFSGLTKEQVLRLREEFGVYAVASGRVNVAGMTPDNMAPLCEAIVAVL [C180F] belongs 8.4 kcal/mol.
The same measure, in the same setting: to MFENITAAPADPILGLADLFRADERPGKINLGIGVYKDETGKTPVLTSVKKAEQYLLENETTKNYLGIDGIPEFGRCTQELLFGKGSALINDKRARTAQTPGGTGALRVAADFLAKNTSVKRVWVSNPSWPNHKSVFNSAGLEVREYAYYDAENHTLDFDALINSLNEAQAGDVVLFHGYCHNPTGIDPTLEQWQTLAQLSVEKGWLPLFDFAYQGFARGLEEDAEGLRAFAAMHKELIVASSYSKNFGLYNERVGACTLVAADSETVDRAFSQMKAAIRANYSNPPAHGASVVATILSNDALRAIWEQELTDMRQRIQRMRQLFVNTLQEKGANRDFSFIIKQNGMFSFSGLTKEQVLRLREEFGVYAVASGRVNVAGMTPDNMAPLCEAIVAVL [C180Y] belongs 7.7 kcal/mol; to MFENITAAPADPILGLADLFRADERPGKINLGIGVYKDETGKTPVLTSVKKAEQYLLENETTKNYLGIDGIPEFGRCTQELLFGKGSALINDKRARTAQTPGGTGALRVAADFLAKNTSVKRVWVSNPSWPNHKSVFNSAGLEVREYAYYDAENHTLDFDALINSLNEAQAGDVVLFHGSCHNPTGIDPTLEQWQTLAQLSVEKGWLPLFDFAYQGFARGLEEDAEGLRAFAAMHKELIVASSYSKNFGLYNERVGACTLVAADSETVDRAFSQMKAAIRANYSNPPAHGASVVATILSNDALRAIWEQELTDMRQRIQRMRQLFVNTLQEKGANRDFSFIIKQNGMFSFSGLTKEQVLRLREEFGVYAVASGRVNVAGMTPDNMAPLCEAIVAVL [C180S], 8.1 kcal/mol.

The variants in a further data set derive from B3. As to conditions: Saccharomyces cerevisiae (strain ATCC 204508 / S288c); Thermal; Fluorescence; structure 1JK9; whole UniProt chain shown.
Take MVQAVAVLKGDAGVSGVVKFEQASESEPTTVSYEIAGNSPNAERGFHIHEFGDATNGCVSAGPHFNPFKKTHGAPTDEVRHVGDMGNVKTDENAVAKGSFKDSLIKLIGPTSVVGRSVVIHAGQDDLGKGDTEESLKTGNAGPRPACGVIGLTN [G94A]: the “change of melting temperature, mutant - wild type (higher = more stable)” value (“change of melting temperature, mutant” for short) came to 20 °C.

Variants of B4 are the subject of the next data set. As to conditions: Homo sapiens; pH 7; Thermal; absorbance; Phosphate buffer; transition: 2; reversible: yes; whole UniProt chain shown.
The term Tm denotes the temperature at which the thermal transition is half complete. Regarding MAGAGSAAVSGAGTPVAGPTGRDLFAEGLLEFLRPAVQQLDSHVHAVRESQVELREQIDNLATELSRINEDQKVALDLDPYVKKLLNARRRVVLVNNILQNAQERLRRLNHSVAKETARRRAMLDSGIYPPGSPGK [C66S], the midpoint of thermal melting (Tm) stood at 72.4 °C and the “change of melting temperature, mutant” value stood at 1.4 °C.

The same data set, now with this note: Homo sapiens; pH 7.4; Thermal; CD; Tris 50 mM; whole UniProt chain shown.
MAGAGSAAVSGAGTPVAGPTGRDLFAEGLLEFLRPAVQQLDSHVHAVRESQVELREQIDNLATELSRINEDQKVALDLDPYVKKLLNARRRVVLVNNILQNAQERLRRLNHSVAKETARRRAMLDSGIYPPGSPGK [C66S]: the midpoint of thermal melting (Tm) turned out to be 60.1 °C and the “change of melting temperature, mutant” value came out at 2.2 °C.

A further data set covers variants of B5. Conditions: Saccharomyces cerevisiae (strain ATCC 204508 / S288c); pH 6.5; 23 °C; GdnHCl; CD; Potassium phosphate 0.05 M; reversible: yes; whole UniProt chain shown.
As for MSVINFTGSSGPLVKVCGLQSTEAAECALDSDADLLGIICVPNRKRTIDPVIARKISSLVKAYKNSSGTPKYLVGVFRNQPKEDVLALVNDYGIDIVQLHGDESWQEYQEFLGLPVIKRLVFPKDCNILLSAASQKPHSFIPLFDSEAGGTGELLDWNSISDWVGRQESPESLHFMLAGGLTPENVGDALRLNGVIGVDVSGGVETNGVKDCNKIANFVKNAKK [S212C], the “ddG of mutation (higher = less stable)” value turned out to be 1 kcal/mol.
